± gives the standard deviation of the averaged measurements.
Legend:
Saccharomyces cerevisiae [1] = assay: protein stability index of tFT-peptide fusion (C-terminal peptide) (PSI (0-1 scale)); higher = more stable (slower turnover)
Protocol: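 MPS profiling in S. cerevisiae of the tFT-X12 degron library: putative degron peptides plus stable controls, 12 aa, fused to the C-terminus of a sfGFP-mCherry timer. Cells are FACS-sorted into 8 mCherry/sfGFP bins and deep-sequenced. PSI runs from 0 (unstable) to 1 (stable). Backgrounds are wild type, das1Δ and doa10Δ at 30 °C, and wild type, das1Δ, cdc34-1 and cdc53-1 at 37 °C; 2-3 technical replicates each.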

Saccharomyces cerevisiae [2] = assay: as above; conditions: genetic background: wild type; temperature: 30 C
[3] = genetic background: cdc34-1, temperature: 37 C
[4] = genetic background: cdc53-1, temperature: 37 C
[5] = genetic background: das1 deletion, temperature: 30 C
[6] = genetic background: das1 deletion, temperature: 37 C
[7] = genetic background: doa10 deletion, temperature: 30 C
[8] = genetic background: wild type, temperature: 30 C
[9] = genetic background: wild type, temperature: 37 C
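Also: PSI is a weighted mean of sequencing reads over stability bins, variants kept only with over 10 reads, mCherry proximal and sfGFP distal, peptide attached via GGGS linker.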

Sequence | protein stability index (Saccharomyces cerevisiae [1]; [3]) | protein stability index (Saccharomyces cerevisiae [1]; [4]) | protein stability index (Saccharomyces cerevisiae [1]; [5]) | protein stability index (Saccharomyces cerevisiae [1]; [6]) | protein stability index (Saccharomyces cerevisiae [1]; [7]) | protein stability index (Saccharomyces cerevisiae [1]; [8]) | protein stability index (Saccharomyces cerevisiae [1]; [9]) | protein stability index (Saccharomyces cerevisiae [2])
RFFFASRYIECF | 0.181 ± 0.0096 | 0.173 ± 0.027 | 0.216 ± 0.014 | 0.354 ± 0.013 | 0.187 ± 0.0019 | 0.22 ± 0.036 | 0.281 ± 0.028 | 0.416 ± 0.11
RFWFTFYLIAVF | 0.0612 ± 0.029 | 0.0779 ± 0.017 | 0.109 ± 0.031 | 0.203 ± 0.0098 | 0.0617 ± 0.016 | 0.0761 ± 0.023 | 0.163 ± 0.081 | 0.103 ± 0.0027
RGWGGGTWVKMG | 0.592 ± 0.011 | 0.72324 ± 0.00012 | 0.664 ± 0.018 | 0.767 ± 0.013 | 0.113 ± 0.019 | 0.121 ± 0.015 | 0.203 ± 0.004 | 0.3012 ± 0.0016
RGYSAIWGCKMN | 0.619 ± 0.097 | 0.742 ± 0.045 | 0.654 ± 0.0072 | 0.74 ± 0.011 | 0.184 ± 0.021 | 0.228 ± 0.018 | 0.529 ± 0.077 | 0.3812 ± 0.0021
RIIDRVSRLIML | 0.765 ± 0.026 | 0.826 ± 0.019 | 0.689 ± 0.034 | 0.765 ± 0.015 | 0.453 ± 0.021 | 0.482 ± 0.034 | 0.627 ± 0.032 | 0.543 ± 0.089
RKFRAWIRITRT | 0.627 ± 0.042 | 0.725 ± 0.031 | 0.635 ± 0.022 | 0.71526 ± 0.00022 | 0.219 ± 0.01 | 0.247 ± 0.048 | 0.471 ± 0.025 | 0.377 ± 0.013
RLCKGQKYTKIN | 0.597 ± 0.014 | 0.718 ± 0.02 | 0.659 ± 0.023 | 0.707 ± 0.034 | 0.0852 ± 0.02 | 0.105 ± 0.026 | 0.155 ± 0.043 | 0.105 ± 0.015
RLRWLSPMTHVG | 0.634 ± 0.013 | 0.7337 ± 0.0061 | 0.666 ± 0.025 | 0.726 ± 0.024 | 0.263 ± 0.0086 | 0.286 ± 0.016 | 0.5802 ± 0.0019 | 0.463 ± 0.012
RLSGACILLSLV | 0.634 ± 0.045 | 0.694 ± 0.015 | 0.553 ± 0.03 | 0.681 ± 0.0082 | 0.217 ± 0.0063 | 0.259 ± 0.022 | 0.439 ± 0.026 | 0.388 ± 0.081
RLSLCLAVLFLV | 0.433 ± 0.062 | 0.574 ± 0.035 | 0.564 ± 0.035 | 0.6468 ± 0.0032 | 0.116 ± 0.0062 | 0.126 ± 0.0059 | 0.146 ± 0.009 | 0.205 ± 0.035
RPSHTSVYRLLH | 0.553 ± 0.061 | 0.677 ± 0.054 | 0.655 ± 0.045 | 0.706 ± 0.019 | 0.114 ± 0.019 | 0.148 ± 0.0086 | 0.337 ± 0.17 | 0.2545 ± 0.0022
RRLAVWCDFRSL | 0.684 ± 0.054 | 0.75155 ± 0.00053 | 0.663 ± 0.018 | 0.7472 ± 0.00055 | 0.416 ± 0.0061 | 0.454 ± 0.035 | 0.653 ± 0.0095 | 0.45 ± 0.012
RRPVHTHTSVSP | 0.7449 ± 0.00016 | 0.742 ± 0.05 | 0.652 ± 0.026 | 0.733 ± 0.0094 | 0.658 ± 0.022 | 0.6561 ± 0.0035 | 0.701 ± 0.012 | 0.606 ± 0.25
RRRGIYARASVV | 0.636 ± 0.018 | 0.728 ± 0.019 | 0.647 ± 0.019 | 0.723 ± 0.017 | 0.249 ± 0.0044 | 0.276 ± 0.043 | 0.434 ± 0.023 | 0.382 ± 0.015
RSITFFPVCLVK | 0.316 ± 0.079 | 0.389 ± 0.06 | 0.293 ± 0.029 | 0.491 ± 0.014 | 0.253 ± 0.021 | 0.289 ± 0.018 | 0.426 ± 0.013 | 0.382 ± 0.016
RSLSFGMVLCYS | 0.358 ± 0.027 | 0.366 ± 0.0079 | 0.248 ± 0.041 | 0.4382 ± 0.0025 | 0.228 ± 0.012 | 0.253 ± 0.028 | 0.401 ± 0.012 | 0.343 ± 0.029
RSLSWCTKRRCC | 0.595 ± 0.044 | 0.7011 ± 0.0057 | 0.675 ± 0.016 | 0.71892 ± 0.00035 | 0.221 ± 0.015 | 0.226 ± 0.022 | 0.454 ± 0.013 | 0.3718 ± 0.00091
RSSGHLLDGRAF | 0.697 ± 0.03 | 0.739 ± 0.011 | 0.64 ± 0.02 | 0.752 ± 0.011 | 0.631 ± 0.029 | 0.654 ± 0.021 | 0.7353 ± 0.0026 | 0.539 ± 0.096
RVGGVVVLGCVG | 0.645 ± 0.03 | 0.711 ± 0.02 | 0.549 ± 0.013 | 0.684 ± 0.02 | 0.555 ± 0.027 | 0.5598 ± 0.0053 | 0.67072 ± 0.0004 | 0.476 ± 0.0028
